Columns and labels:
[1] = target: human proBDNF V66M variant (human); assay: SAXS; hproBDNF V66M in solution at five concentrations (0.14–1.45 mg/mL), 50 mM Sodium Phosphate pH 7.0, 283 K; molecular mass from I(0) against BSA and from the Porod volume, compared with the calculated monomer mass
[2] = target: BDNF pro-peptide V66M pro-peptide (Homo sapiens) (UniProt P23560); assay: SPR; conditions: cited from earlier work
[3] = target: BDNF pro-peptide pro-peptide (Homo sapiens) (UniProt P23560); assay: SPR; conditions: cited from earlier work
Chain of BDNF pro-peptide pro-peptide (Homo sapiens) (P23560 19-128): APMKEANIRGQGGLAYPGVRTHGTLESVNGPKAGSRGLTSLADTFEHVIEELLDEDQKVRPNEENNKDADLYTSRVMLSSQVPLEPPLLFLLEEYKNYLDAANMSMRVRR

Chain of BDNF (P23560 129-247): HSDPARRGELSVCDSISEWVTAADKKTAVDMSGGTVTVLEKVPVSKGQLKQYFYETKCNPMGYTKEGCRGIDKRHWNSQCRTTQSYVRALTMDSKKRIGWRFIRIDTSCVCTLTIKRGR
Chain of BDNF pro-peptide V66M pro-peptide (Homo sapiens) (P23560 19-128 V66M): as the sequence (P23560 19-128) above, with V48M counted along it

Substance	stoichiometry N [1]	Kd [2] [nM]	Kd [3] [nM]
human proBDNF V66M variant (natural protein)	2		
BDNF (from UniProt P23560)		0.12	0.42

Source: article PMC9224406
